Experimental findings from patent US20240101708A1 (Genentech, published 2024) are described below.

Substitutions are numbered along the chain they refer to.

In the assay the target is T1, recombinant human ZNRF3 extracellular domain (human, UniProt Q9ULT6 56-219).
T1 construct: extracellular domain; also called huZNRF3; human ZNRF3 ECD
T1 sequence (looked up): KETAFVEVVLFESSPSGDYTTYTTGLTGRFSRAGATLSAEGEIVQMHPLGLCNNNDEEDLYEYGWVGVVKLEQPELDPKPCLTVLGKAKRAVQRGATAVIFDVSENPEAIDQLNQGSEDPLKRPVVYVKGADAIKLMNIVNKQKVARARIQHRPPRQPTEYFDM
The assay is described as follows: SPR Biacore 8K; antibody captured on Protein A; ZNRF3 ECD analyte; 25 C. On the procedure: Antibodies were screened for binding to recombinant human RNF43 and ZNRF3 ECDs using a Biacore® 8 k instrument (GE Life Sciences). Briefly, antibodies diluted to 1 μg/ml in 1×HBSP buffer (Cytiva, BR100368) were captured on a Sensor Chip Protein A (GE Life Sciences) using a flow rate of 10 μl/minute and a contact time of 60 seconds. Binding of recombinant human RNF43 and ZNRF3 extracellular domain to the captured antibodies was analyzed at 25° C. using a single cycle kinetics method with a flow rate of 30 μl/minute, a contact time of 180 seconds and a dissociation time of 600 seconds. The concentration of recombinant human RNF43 and ZNRF3 extracellular domain in the single cycle kinetics were 0, 0.8, 4, 20, and 100 nM. Between cycles, the chip was regenerated using 10 mM Glycine HCl pH 1.5 injected for 30 seconds at 30 μl/minute. Data were evaluated using Biacore 8K Evaluation software (GE Life Sciences). Kinetic constants were obtained using a 1:1 binding model with the parameter RI set to zero. Cell surface ligase antibodies with sub-nanomolar affinities may provide advantages in certain instances, for example, in the degradation efficiency which is correlated with the durability of the ternary complex as shown in FIG. 5D.

B1: ZNRF3-128 (antibody, V domains shown)
VH: EVQLVESGGGLVQPGKSLKLSCSASGFTFSSYGMHWIRQAPGKGLDWVAYISTNSATVYADAVKGRFTISRDNAKNTLYLQLNSLKSEDTAIYYCARSGYTTYMPFTYWGQGTLVTVSS
VL: DVLMTQTPVSLPVSLGGQVSISCRSSQSLVHSDGNTYLHWYLQKPGQSPQLLIYRVSNRFSGVSDRFSGSGSGTDFTLKISRVEPDDLGIYYCLQTTHFLTWTFGGGTKLELK
notes: Rat clone; VH/VL only
On to B1, for which the Kd turned out to be 3.16 nM.

B2: ZNRF3-17 (antibody, V domains shown)
VH: EVQLVESGGGLVQPGGSLKLSCAASGFTFSNYDMAWVRQAPTKGLEWVASISTGGGKTYYRDSVKGRLTISRDNAKNTQYLQMDSLRSEDTATYYCARLGPAYSGEWFAYWGQGTLVTVSS
VL: DTVLTQSPALAVSPGERVTISCGASEGVNTRMHWYQQRSGQQPKLLIYGSSNLDSGVPDRFSGSGSGTDFTLTIDPVEAKDAATYFCQQSWNVPNTFGAGTKLELK
notes: Rat clone; VH/VL only
B2: the equilibrium dissociation constant (Kd) was 0.04 nM.

B3: ZNRF3-55 (antibody, V domains shown)
VH: B2 VH with Q3H, K43R, T53P, D73N, K76E, M83I, A97S
VL: DTVLTQSPALTVSPGDKITISCRASEGVNTRIHWYQQKSGQQPKLLIYGASNLDSGVPDRFSGSGFGTDFTLTIDPVEASDTATYFCQQSWNVPHTFGGGTKLELK
notes: Rat clone; VH/VL only
Turning to B3, the Kd was 0.02 nM.

B4: ZNRF3-279 (antibody, V domains shown)
VH: QVQLQQSGAELVKPGTSVRLSCKASGYTFTHNHMNWIKQTTGQGLEWIGIINPGSGGTNYNVRFKGKATLTVDTSSSTAFMQLSSLTPEDSAVYYCARNLITIAGPFAYWGQGTLVTVSS
VL: DTVLTQSPALTVSPGERVSISCRASEGVSSYIHWYQQKPGQQPKLLIYKASNLASGVPARFSGSGSGTDFTLTIDPVEADDTATYFCQQSWIDHTFGTGTKLELK
notes: Rat clone; VH/VL only
In the case of B4, the Kd came to 1.66 nM.

B5: ZNRF3-305 (antibody, V domains shown)
VH: EVLLQQSGAELVRPGSSVKISCKTSGYTFTDYYLHWVKQRPEQGLVWIGRINPINGKTVCIEKFKTKATLTADKSSNTAYMELSSLTSEDTATYFCTRGGLAYWGQGTLVTVSS
VL: DIQMTQSPSSLPASLGERVTISCRASQGISNNLNWYQQKPDGTIKPLIYYTSNLQSGVPSRFSGSGSGTDYSLTIGSLEPEDFTMYYCQQDASFPPTFGAGTKLELK
notes: Rat clone; VH/VL only
With B5, the Kd was 7.18 nM.

B6: ZNRF3-269 (antibody, V domains shown)
VH: EIQLQESGPGLVKPSQSLSLTCSVTDDTITSGYDWSWIRKFPGNKMEWMGDISSSGHTNYNPSLQIRISITRDTSKNQFFLQLNSVTTEDSATYYCARGGFLFPFTFWGQGTLVTVSS
VL: B5 VL with G28V, I29L, S30N, I48L, G76T, E79D, T84A, M85I, A100G
notes: Rat clone; VH/VL only
With B6, the Kd came to 0.312 nM.

B7: ZNRF3-131 (antibody, V domains shown)
VH: EVQVVESGGGLVQPGRSLKVSCAASGFTFSRYGMAWVRQAPTKGLEWVASISTGGENTYYRDSVKGRFTISRDNVKNTLYLQMDSLRSEDTATYYCARHGRVLNYFDYWGQGVMVTVSL
VL: DIQMTQSPASLSASLGETVSIECLTSEDIYTYLAWYQQKPGKSPHLLIFAASRLQDGVPSRFSGSGSGTQYSLKISGMQPEDEGDYFCLQGSKFPYTFGAGTKLDLK
notes: Rat clone; VH/VL only
In the case of B7, the dissociation constant Kd stood at 2.39 nM.

B8: ZNRF3-312 (antibody, V domains shown)
VH: QVQLQQSGAELVKPGSSVKMSCKASGYSFTTYYIYWINQRPGQGLEWIGRIGLGSGDTDYNEKFKGKATFTVDKFSNTAYLQLSSLTPEDTAVYYCARWDYGYRGFAYWGQGTLVTVSS
VL: DVVMTQTPVSLSVSLGGQVSISCRSSQSFVHSDGNTYLNWYLQTPGQSPQLLIYKVSNRLSGVPDRFSGSGSGTYFTLKISRVEHDDLGVYYCGQASKIPLTFGSGTKLEIK
notes: Rat clone; VH/VL only
In the case of B8, the Kd worked out at 0.611 nM.

B9: ZNRF3-301 (antibody, V domains shown)
VH: QVQLKESGPGLVQPSQTLSLTCTVSGFSLTSYSVHWVRQHSGKSLEWMGRIWSDGDTSYNSAFTSRLSISRDTSKSQVFLKMNSLQTEDTGTYYCDRSGGSPFFDYWGQGVMVTVSS
VL: QFVLTQSNSVSTNLGSTVKLSCERSIGNIGSNYVNWYQQYEGRSPTTMIYKFDQRPDGVPDRFSGSIDRSSNSVLLTINNVQTEDEADYFCQSYSSDMYIFGGGTKLTVL
notes: Rat clone; VH/VL only
As for B9, the Kd is 0.0974 nM.

B10: ZNRF3-275 (antibody, V domains shown)
VH: QVQLKESGPGLVQPSQTLSLTCTVSGFSFNYYNVHWLRQPPGKGLEWLGVIWSGGNRDYNSALKPRLRISRDTSKTQVFLTLNSLQTEDTGIYYCTRMWGYGYNPFDHWGQGVMVTVSS
VL: DIQMTQSPSFLSASLGDNITITCHASQDIKGWLAWYQQKSGNAPELLIYKASSLQSGVPSRFSGGGSGTEYVLTISNLQPDDIATYYCQLYHSFPFTFGSGTKLETK
notes: Rat clone; VH/VL only
In the case of B10, the Kd is 0.0565 nM.

B11: ZNRF3-314 (antibody, V domains shown)
VH: B10 VH with T23N, L37V, R57T, T76S, T96N, H108Y
VL: B10 VL with D17N, A51T, G65S, T106I
notes: Rat clone; VH/VL only
B11: the Kd stood at 0.104 nM.

B12: ZNRF3-195 (antibody, V domains shown)
VH: EVQLVESGGGLVQPGNSLNLSCSASGFPFSTYGMHWIRQAPGKGLDWVAYISYNSGTVYADAVKGRFTISRDNAKNTLYLQLNSLKSEDTAIYYCARGYYDGYYRYWGQGVMVTVSS
VL: DIVMTQSPFSLAVSEGEMVTINCKSSQSLLSSGNQKNYLAWYQQRPGQSPKLLIYHASTRQSGVPDRFIGSGSGTDFTLTISDVQAEDLADYYCLQHYSSPTFGSGTKLEIK
notes: Rat clone; VH/VL only
On to B12, for which the dissociation constant (Kd) amounted to 0.27 nM.

B13: ZNRF3-6 (antibody, V domains shown)
VH: EVQLVESGGGLVPPGKSLKLSCSASGFPFSNYGMHWIRQAPGKGLDWVGYISSNSGTIYADAVKGRFTISRDNAKNTLYLLINSLKSEDTAMYYCARGYFDGYYRFWGQGVMVTVSS
VL: B12 VL with E17D, N22M, K24R, R45K
notes: Rat clone; VH/VL only
In the case of B13, the Kd is 0.12 nM.

B14: ZNRF3-172 (antibody, V domains shown)
VH: EVQLAESGGGLEQPGRSLKLSCAASGFTFSNYDMAWVRQAPTKGLEWVASIIASGGTTYYRDSVKGRFTVSRDNAKSTLYLQMDSLRSEDTATYYCARHGVGSYDWFADWGQGTLVTVSS
VL: DIVLTQSPALAVSLGQRATISCRASQSVTISGFNLMHWYQQKPGQQPKLLIYRASNLAFGIPARFSGSGSGTDFTLTINPVQADDITTYYCQQSRKSRTFGGGTKLELK
notes: Rat clone; VH/VL only
On to B14, for which the dissociation constant (Kd) is 0.21 nM.

B15: ZNRF3-179 (antibody, V domains shown)
VH: B14 VH with A53T, G56D, Y95H
VL: B14 VL with F33Y
notes: Rat clone; VH/VL only
With B15, the equilibrium dissociation constant (Kd) was 0.11 nM.

B16: ZNRF3-182 (antibody, V domains shown)
VH: B14 VH with A53K, G56D, T58S
VL: B14 VL with I86F
notes: Rat clone; VH/VL only
With B16, the Kd was 0.06 nM.

B17: ZNRF3-30 (antibody, V domains shown)
VH: B14 VH with K43R, I52L, A53T
VL: B14 VL with F33Y, K105R
notes: Rat clone; VH/VL only
Regarding B17, the Kd was found to be 0.12 nM.

B18: ZNRF3-90 (antibody, V domains shown)
VH: EVQLVESGGGLVQPGRSMKLSCAASGFTFSNYYMAWVRQAPRKGLEWVASITTGGTNTYYRDSVRGRFTISRDNAKSTLYLQMDSLRSEETATYYCARHSGGLIRARGHYFHYWGQGVMVTVSS
VL: DIQMTQSPASLSASLGEIVSIECLASEGISNDLAWYQQKSGKSPQVLVYAASRLQDGVPSRFSGSGSGTRYSLKISGMQPEDEADYFCQQSYTYPYTFGAGTKLELK
notes: Rat clone; VH/VL only
For B18, the Kd came to 0.27 nM.
